Experimental data: US20260275311, “CRISPR NUCLEASE POLYPEPTIDES AND GENE EDITING SYSTEMS COMPRISING SUCH” (ARBOR BIOTECHNOLOGIES, INC., published 2026)
Residue numbers refer to the chain shown, from its start.

T1: Nuclease K D46R (D46R)
T1 chain: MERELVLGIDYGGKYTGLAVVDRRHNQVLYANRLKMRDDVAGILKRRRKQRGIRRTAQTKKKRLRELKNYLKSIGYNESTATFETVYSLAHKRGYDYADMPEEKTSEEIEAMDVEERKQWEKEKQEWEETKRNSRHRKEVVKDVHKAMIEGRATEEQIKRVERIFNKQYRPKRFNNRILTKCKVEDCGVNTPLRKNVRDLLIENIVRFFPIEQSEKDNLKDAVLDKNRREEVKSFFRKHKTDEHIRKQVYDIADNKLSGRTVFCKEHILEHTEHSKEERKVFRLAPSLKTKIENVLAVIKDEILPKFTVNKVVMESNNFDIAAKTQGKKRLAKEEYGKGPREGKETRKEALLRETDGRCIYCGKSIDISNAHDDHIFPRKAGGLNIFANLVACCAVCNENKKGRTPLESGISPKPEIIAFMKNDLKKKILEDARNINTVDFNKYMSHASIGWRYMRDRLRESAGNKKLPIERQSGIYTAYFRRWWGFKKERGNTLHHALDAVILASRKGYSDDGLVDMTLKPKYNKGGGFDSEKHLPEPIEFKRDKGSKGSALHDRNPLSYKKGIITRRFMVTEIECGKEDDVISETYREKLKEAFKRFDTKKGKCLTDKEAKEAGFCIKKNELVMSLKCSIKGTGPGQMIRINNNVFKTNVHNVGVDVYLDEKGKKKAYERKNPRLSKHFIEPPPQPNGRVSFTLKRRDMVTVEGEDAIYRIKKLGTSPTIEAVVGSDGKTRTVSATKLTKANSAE

T2: Nuclease K D582R/I53R/T734R (D582R,I53R,T734R)
T2 chain: T1 chain with R46D, I53R, D582R, T734R

T3: Nuclease K D582R/G42R (D582R,G42R)
T3 chain: T1 chain with G42R, R46D, D582R

B1: Nuclease K AAVS1-T3 guide ; AAVS1-T3 target (ssRNA ; dsDNA)
RNA: UUGUGAGAAUGGUGCGUCCUGUUACAGUUAAGGCUCUGAAAAGAGCCUUAAUUGUAAAACGCCUAUACAGUGAAGGGAUAUACGCUUGGGUUUGUCCAGCCUGAGCCUCUAUGCCAGAAAUGGCGCCUUCAUCGUGGGUUAGGACAUUUAAAUUUAAAAACUAUUCAGCACUGUUUGCUCUUGUCAGCUUGGUGGCAGA
DNA 1: TTGTGAGAATGGTGCGTCCT
DNA 2: AGGACGCACCATTCTCACAA
B2: Nuclease K EMX1-T7 guide ; EMX1-T7 target (ssRNA ; dsDNA)
RNA: CUUUAGCAAGGGACUAUUCAGUUACAGUUAAGGCUCUGAAAAGAGCCUUAAUUGUAAAACGCCUAUACAGUGAAGGGAUAUACGCUUGGGUUUGUCCAGCCUGAGCCUCUAUGCCAGAAAUGGCGCCUUCAUCGUGGGUUAGGACAUUUAAAUUUAAAAACUAUUCAGCACUGUUUGCUCUUGUCAGCUUGGUGGCAGA
DNA 1: CTTTAGCAAGGGACTATTCA
DNA 2: TGAATAGTCCCTTGCTAAAG

Key:
Assay in all cases: cell_activity; PAM NGG; HEK293T
Conditions in all cases: tags: N- and C-terminal NLS
Nuclease K D46R = molecular target: T1, Nuclease K D46R
[1] = molecular target: T2, Nuclease K D582R/I53R/T734R
Protocol: (§1) This Example describes indel assessment on mammalian targets using nuclease variants of Nuclease K comprising two or more substitutions identified as increasing indel activity in Example 8. 71 combination Nuclease K variants were tested.
(§2) Each Nuclease K variant and RNA guide (see Table 19) was cloned as described in Example 8. HEK293T cells were further transfected, followed by NGS analysis, as described in Example 8. For each target, indel ratios, referring to the percentage of NGS reads comprising indels, were calculated for the reference Nuclease K (SEQ ID NO: 65) and for each Nuclease K variant. The indel ratios shown in Table 20 were calculated as the average of two bioreplicates, each of which contained two technical replicates.

Nuclease K D582R/G42R = molecular target: T3, Nuclease K D582R/G42R
Protocol: as §1, §2

| Binder | binding signal (Nuclease K D46R) [fold vs Nuclease K] | activity [1] [indel ratio] | activity (Nuclease K D582R/G42R) [indel ratio] |
| --- | --- | --- | --- |
| B1 | 6.71 | 0.27 | 0.221 |
| B2 | 9.86 | 0.25 | 0.231 |
